Data taken from IntAct's records for PubMed 22505024.

B1: ERBB receptor feedback inhibitor 1 (Homo sapiens), Q9UJM3 (parent)
chain: MSIAGVAAQEIRVPLKTGFLHNGRAMGNMRKTYWSSRSEFKNNFLNIDPITMAYSLNSSAQERLIPLGHASKSAPMNGHCFAENGPSQKSSLPPLLIPPSENLGPHEEDQVVCGFKKLTVNGVCASTPPLTPIKNSPSLFPCAPLCERGSRPLPPLPISEALSLDDTDCEVEFLTSSDTDFLLEDSTLSDFKYDVPGRRSFRGCGQINYAYFDTPAVSAADLSYVSDQNGGVPDPNPPPPQTHRRLRRSHSGPAGSFNKPAIRISNCCIHRASPNSDEDKPEVPPRVPIPPRPVKPDYRRWSAEVTSSTYSDEDRPPKVPPREPLSPSNSRTPSPKSLPSYLNGVMPPTQSFAPDPKYVSSKALQRQNSEGSASKVPCILPIIENGKKVSSTHYYLLPERPPYLDKYEKFFREAEETNGGAQIQPLPADCGISSATEKPDSKTKMDLGGHVKRKHLSYVVSP
partner: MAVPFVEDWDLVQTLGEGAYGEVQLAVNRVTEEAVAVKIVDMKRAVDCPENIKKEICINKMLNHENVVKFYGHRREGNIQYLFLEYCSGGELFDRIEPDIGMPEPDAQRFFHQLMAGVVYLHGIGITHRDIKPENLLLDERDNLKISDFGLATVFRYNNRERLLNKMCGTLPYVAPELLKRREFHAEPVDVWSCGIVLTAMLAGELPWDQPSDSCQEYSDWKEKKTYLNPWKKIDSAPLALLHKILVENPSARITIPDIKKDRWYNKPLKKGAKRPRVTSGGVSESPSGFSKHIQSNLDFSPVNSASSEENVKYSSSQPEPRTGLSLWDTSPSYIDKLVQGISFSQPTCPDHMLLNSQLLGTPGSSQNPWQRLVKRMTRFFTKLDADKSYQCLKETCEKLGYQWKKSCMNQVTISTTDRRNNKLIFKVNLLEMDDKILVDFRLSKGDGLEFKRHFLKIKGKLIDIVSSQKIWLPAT

Variants of: B1
Conditions: with chk1_human CHEK1, O14757

Variant | effect of a mutation on the interaction
MSIAGVAAQEIRVPLKTGFLHNGRAMGNMRKTYWSSRSEFKNNFLNIDPITMAYSLNSSAQERLIPLGHASKSAPMNGHCFAENGPSQKSSLPPLLIPPSENLGPHEEDQVVCGFKKLTVNGVCASTPPLTPIKNSPSLFPCAPLCERGSRPLPPLPISEALSLDDTDCEVEFLTSSDTDFLLEDSTLSDFKYDVPGRRSFRGCGQINYAYFDTPAVSAADLSYVSDQNGGVPDPNPPPPQTHRRLRRSHAGPAGSFNKPAIRISNCCIHRASPNSDEDKPEVPPRVPIPPRPVKPDYRRWSAEVTSSTYSDEDRPPKVPPREPLSPSNSRTPSPKSLPSYLNGVMPPTQSFAPDPKYVSSKALQRQNSEGSASKVPCILPIIENGKKVSSTHYYLLPERPPYLDKYEKFFREAEETNGGAQIQPLPADCGISSATEKPDSKTKMDLGGHVKRKHLSYVVSP [S251A] | decreasing interaction
MSIAGVAAQEIRVPLKTGFLHNGRAMGNMRKTYWSSRSEFKNNFLNIDPITMAYSLNSSAQERLIPLGHASKSAPMNGHCFAENGPSQKSSLPPLLIPPSENLGPHEEDQVVCGFKKLTVNGVCASTPPLTPIKNSPSLFPCAPLCERGSRPLPPLPISEALSLDDTDCEVEFLTSSDTDFLLEDSTLSDFKYDVPGRRSFRGCGQINYAYFDTPAVSAADLSYVSDQNGGVPDPNPPPPQTHRRLRRAHSGPAGSFNKPAIRISNCCIHRASPNSDEDKPEVPPRVPIPPRPVKPDYRRWSAEVTSSTYSDEDRPPKVPPREPLSPSNSRTPSPKSLPSYLNGVMPPTQSFAPDPKYVSSKALQRQNSEGSASKVPCILPIIENGKKVSSTHYYLLPERPPYLDKYEKFFREAEETNGGAQIQPLPADCGISSATEKPDSKTKMDLGGHVKRKHLSYVVSP [S249A] | decreasing interaction

Variants of: B1
Conditions: with chk1_human CHEK1, O14757
Remark: another data set of the same source

Variant | effect of a mutation on the interaction
MSIAGVAAQEIRVPLKTGFLHNGRAMGNMRKTYWSSRSEFKNNFLNIDPITMAYSLNSSAQERLIPLGHASKSAPMNGHCFAENGPSQKSSLPPLLIPPSENLGPHEEDQVVCGFKKLTVNGVCASTPPLTPIKNSPSLFPCAPLCERGSRPLPPLPISEALSLDDTDCEVEFLTSSDTDFLLEDSTLSDFKYDVPGRRSFRGCGQINYAYFDTPAVSAADLSYVSDQNGGVPDPNPPPPQTHRRLRRSHSGPAGSFNKPAIRISNCCIHRASPNSDEDKPEVPPRVPIPPRPVKPDYRRWSAEVTSSTYSDEDRPPKVPPREPLSPSNSRTPSPKSLPSYLNGVMPPTQSFAPDPKYVSSKALQRQNAEGSASKVPCILPIIENGKKVSSTHYYLLPERPPYLDKYEKFFREAEETNGGAQIQPLPADCGISSATEKPDSKTKMDLGGHVKRKHLSYVVSP [S369A] | decreasing interaction
MSIAGVAAQEIRVPLKTGFLHNGRAMGNMRKTYWSSRSEFKNNFLNIDPITMAYSLNSSAQERLIPLGHASKSAPMNGHCFAENGPSQKSSLPPLLIPPSENLGPHEEDQVVCGFKKLTVNGVCASTPPLTPIKNSPSLFPCAPLCERGSRPLPPLPISEALSLDDTDCEVEFLTSSDTDFLLEDSTLSDFKYDVPGRRSFRGCGQINYAYFDTPAVSAADLSYVSDQNGGVPDPNPPPPQTHRRLRRSHSGPAGSFNKPAIRISNCCIHRASPNSDEDKPEVPPRVPIPPRPVKPDYRRWAAEVTSSTYSDEDRPPKVPPREPLSPSNSRTPSPKSLPSYLNGVMPPTQSFAPDPKYVSSKALQRQNSEGSASKVPCILPIIENGKKVSSTHYYLLPERPPYLDKYEKFFREAEETNGGAQIQPLPADCGISSATEKPDSKTKMDLGGHVKRKHLSYVVSP [S302A] | decreasing interaction
MSIAGVAAQEIRVPLKTGFLHNGRAMGNMRKTYWSSRSEFKNNFLNIDPITMAYSLNSSAQERLIPLGHASKSAPMNGHCFAENGPSQKSSLPPLLIPPSENLGPHEEDQVVCGFKKLTVNGVCASTPPLTPIKNSPSLFPCAPLCERGSRPLPPLPISEALSLDDTDCEVEFLTSSDTDFLLEDSTLSDFKYDVPGRRSFRGCGQINYAYFDTPAVSAADLSYVSDQNGGVPDPNPPPPQTHRRLRRSHSGPAGSFNKPAIRISNCCIHRASPNSDEDKPEVPPRVPIPPRPVKPDYRRWSAEVTSSTYSDEDRPPKVPPREPLSPSNSRTPAPKSLPSYLNGVMPPTQSFAPDPKYVSSKALQRQNSEGSASKVPCILPIIENGKKVSSTHYYLLPERPPYLDKYEKFFREAEETNGGAQIQPLPADCGISSATEKPDSKTKMDLGGHVKRKHLSYVVSP [S334A] | decreasing interaction
